Publication PMC10726160

Target: GW182 (TNRC6A), short isoform (mouse (endogenous in OT-I CD8+ T cells))
Experiment: co-IP; anti-GW182 antibody on Protein G Dynabeads; lysates of naive (d0) and d6 activated OT-I CD8+ T cells, 2 x 10^7 cells per IP; bound and unbound fractions blotted with Ago2 and GW182 antibodies

Argonaute 2 (Ago2) (from UniProt Q8CJG0 1-860) (natural protein)
percent of Ago2 associated with immunoprecipitated GW182 (d6): 50%
